Laboratory results: patent US6383479B1, “Neutrophil-activating factor” (Novartis AG, priority 1987, dated 2002)

Columns and labels:
thymocyte = thymocyte proliferation as a measure of IL-1 activity; assay type: cell-based; conditions: phosphocellulose fractions
Protocol: Mononuclear cells obtained from donor blood buffy coats as described in Example 1 are cultured in MEM-PPL for 48 h in the presence of 100 ng/ml LPS in stirred culture bottles (1.5 liter, 5×10^6 cells/ml). The culture supernatants are then collected, centrifuged at 20000 rpm for 20 min. at 4° to remove particulate material, and loaded onto a 10 ml phosphocellulose column (Whatman P11, 1,4×6 cm) equilibrated with 20 mM potassium phosphate buffer, pH 7.2 containing 20 mM NaCl and 5% glycerol. The column is washed with 30 ml of the above buffer and then eluted with 90 ml of a linear NaCl concentration gradient (0.02 M to 1.5 M) in the same buffer. Fractions of 2 ml are collected in 0.1% polyethylene glycol and tested for NAF and IL-1 activity. Absorbance at 280 nm is monitored continuously as a measure of protein.
Most of the protein as well as the IL-1 activity are recovered in the flow-through volume. Elution with a linear NaCl gradient yields some IL-1 activity at low ionic strength followed by a peak of elastase-releasing activity corresponding to NAF, which starts to elute at 0.5 M and reaches its maximum at 0.8 M NaCl. The peak is symmetric and is preceded by a small shoulder.

[1] = resistance of NAF activity to heat, pH, denaturing agents and proteases; assay type: physicochemical
Protocol: Partially purified NAF obtained upon phosphocellulose chromatography (Example 4) is used in these experiments. Following phosphocellulose chromatography, fractions with the highest NAF activity are dialysed overnight at 4° against PBS using a membrane with a molecular weight cut-off of 1000 daltons. The preparation obtained is then subjected to the following treatments: a) incubation at 37° with and without trypsin, chymotrypsin or proteinase K (100 μg/ml) followed by the addition of an excess of BSA (2 mg/ml) to stop NAF proteolysis; b) heating to 56°, 80° or 95° (as compared to 22° for control); c) exposure to pH 2 or 10 (at 22°) followed by adjustment to pH 7.4 (as compared to pH 7.4 for control); d) exposure to 2 M lithium chloride, 6 M guanidinium chloride, 1% 2-mercaptoethanol or 0.5% sodium dodecyl sulfate (SDS) for 3 h at 22°, followed by dialysis for 24 h at 4° against PBS. When additions are made, samples without NAF are handled in the same way and tested for possible influence on the NAF assay.

[2] = exposure to fresh human serum, then activity (superoxide production); assay type: in vitro ADME; conditions: 15 minutes with fresh human serum
Protocol: C5A and NAF are incubated for 15 minutes with fresh human serum or with PBS and the activity of the preparations is determined (superoxide production).
Since C5a and NAF have similar effects on neutrophils, further experiments must be performed to discriminate entirely between the two. Samples of NAF and C5a are exposed to fresh human serum.

neutrophils = test: sequential/repeated stimulation of neutrophils (desensitization, superoxide formation); assay type: cell-based, human
Protocol: a) Neutrophils (3×10^6 /ml) are preincubated at 37° C. for 5 min. and then stimulated with different agonists as indicated (arrows).
b) Sequential or repeated stimulation with NAF and C5a. Conditions as in a).
Arrows show addition of agonists as indicated. The concentration of C5a is 0.5 nM in a) and 0.2 nM in b), that of fMLP is 20 nM in both experiments. The agonists are added in 50 μl of PBS-BSA.
On the other hand, when agonists acting on different receptors are used in sequence.(e.g. fMLP followed by C5a) these stimulations yield a normal response. Experiments of this type are therefore used to find out whether NAF acts by its own receptor or via a receptor also used by other agonists.

Rabbit neutrophils = test: NAF-induced exocytosis in rabbit neutrophils (N-acetyl-β-glucosaminidase release); assay type: cell-based; conditions: 15 min, cytochalasin B pretreated, purified natural NAF
Protocol: Rabbit neutrophils are isolated from peripheral blood (obtained from the ear vein or artery) by dextran sedimentation followed by Hypaque-Ficoll density gradient centrifugation. Purified natural NAF is used.
Exocytosis conditions: 0.6×10^6 cells (in a total volume of 0.15 ml) pretreated with cytochalasin B for 5 min at 37° are stimulated with NAF (0.1-100 nM) or fMLP (100 nM) for 15 min. N-acetyl-β-glucosaminidase, an azurophil granule marker, is determined in the cell-free medium.

[3] = system: mouse, rat and guinea pig; test: preliminary tests of NAF activity in mouse, rat and guinea pig
Source text: The biological properties of NAF are species-specific. Activity in the rabbit most closely mirrors activity in humans.

[4] = isoelectric point (chromatofocusing); assay type: physicochemical
Protocol: A sample of 4 ml of NAF partially purified by phosphocellulose chromatography (Example 4) is dialyzed against start buffer consisting of 25 mM ethanolamine-HCl, pH 9.4 and 0.1% polyethylene glycol 6000, and loaded onto a PBE 94 column (0.7×19 cm, Pharmacia) equilibrated with the same buffer. The column is then eluted with 200 ml of polybuffer 96-HCl (diluted 1:10 with water), pH 7.0, containing 0.1% polyethylene glycol 6000. 10-minute fractions are collected at a flow rate of 10-14 ml/h and assayed for NAF activity. Most of the activity elutes in the region of pH 8.5 to pH 8.8 (FIG. 9).

With neutrophil-activating factor [NAF] the “thymocyte proliferation-inducing activity (IL-1 activity)” value (thymocyte) was “no thymocyte proliferation-inducing activity”, the Relative activity ([1]; 2-mercaptoethanol 1.0%, 22°, 3 h) was 30 and the Relative activity ([1]; SDS 0.5%, 22°, 3 h) was 100. For the same substance, the Relative activity ([1]; Temperature 22°, 3 h (control)) was 100, the Relative activity ([1]; Temperature 56°, 1 h) was 82 and the Relative activity ([1]; Temperature 80°, 15 min) was 80. It also gave a Relative activity ([1]; Temperature 95°, 5 min) of 66, a Relative activity ([1]; guanidinium chloride 6M, 22°, 3 h) of 68 and a Relative activity ([1]; lithium chloride 2M, 22°, 3 h) of 52. It also gave a Relative activity ([1]; pH 2.0, 22°, 3 h) of 76, a Relative activity ([1]; pH 10.0, 22°, 3 h) of 90 and a Relative activity ([1]; proteinase K 100 μg/ml, 37°, 12 h) of 0. For the same substance, the Relative activity ([1]; trypsin 100 μg/ml, 37°, 4 h) was 100, the Relative activity ([1]; trypsin 100 μg/ml, 37°, 12 h) was 8 and the Relative activity ([1]; α-chymotrypsin 100 μg/ml, 37°, 4 h) was 80. The Relative activity ([1]; α-chymotrypsin 100 μg/ml, 37°, 12 h) was 1, the “effect of serum treatment on activity” value [2] was “does not affect” and the “cross-desensitization in combinations of NAF with PAF, fMLP and leukotriene B4” value (neutrophils) was “fail to show cross-desensitization”. The “cross-desensitization between NAF and C5a” value (neutrophils; superoxide formation) was “no cross-desensitization”, the “desensitization to a second stimulation with the same agonist” value (neutrophils; superoxide formation) was “complete desensitization” and the N-acetyl-β-glucosaminidase (Rabbit neutrophils; stimulus 0.1 nM) was 53 pmol/min. The N-acetyl-β-glucosaminidase (Rabbit neutrophils; stimulus 1.0 nM) was 99 pmol/min, the N-acetyl-β-glucosaminidase (Rabbit neutrophils; stimulus 10.0 nM) was 139 pmol/min and the N-acetyl-β-glucosaminidase (Rabbit neutrophils; stimulus 100.0 nM) was 157 pmol/min. The “activity in the mouse, rat and guinea pig” value [3] was “not shown any clear activity” and the isoelectric point [4] was “approximately 8.6”.
